Results: doi:10.1101/2025.08.07.669152 (bioRxiv, 2025)

Target: WT RBD of SARS-CoV-2 (S protein residues 319–539) (SARS-CoV-2, wild type (GenBank …, UniProt P0DTC2))
Assay: ELISA

B1: Nb 2-38 (VHH)
VHH: QVQLVESGGGLVQAGGSLRLSCAAAARFSTSAMGWFRQAPGKEREFVAAISWSNTNTHYADTVKGRFTISADTAKETVDLQMNSLKPEDTAVYYCVQGGWGIRQPIIVDYWGKGTQVTVSS
  binding result: binds

B2: Nb 1-22 (VHH)
VHH: HVQLVESGGGLVQPGGSLRLSCAASGRSFNSYLMGWFRQAPGKEREFVAWISGSPHDIIRYRDSVKDRFTISRDNAKNTVYLQMNSLKPVDTAVYYCAVGSLRVGSFSPDYWGQGTQVTVSS
  binding result: binds

B3: Nb 2-31 (VHH)
VHH: QVQLVESGGGLVQAGESLRLSCAASKPTFRNFAAGWFRQTPGKDREFVAVIEYDGDSAYYADSVKGRFTISRDNAKNTVYLQMNRLKPGDTAVYICAIGGNHYDPSKYYTADEYDYWGQGTQVTVSS
  binding result: binds

B4: Nb 2-45 (VHH)
VHH: QVQLVESGGGLVQAGGSLRLSCTASGYDFSILAIAWYRQAPGKERELVAAISRVGSTDYADSVKGRFTISRDNTKNTVSLQMDSLKPEDTAVYYCNAGIPMTTVLSGLGFWGQGTQVTVSS
  binding result: binds
